Assay results taken from publication PMC5551578 (The Journal of Experimental Medicine, 2017).
Numbering of substitutions follows the chain as printed. Like-named read-outs stand apart in the source and are kept apart here.

What was measured:
[1] = target: T1, H1N1 HA (A/California/04/2009) (Influenza A virus A/California/04/2009 …, UniProt C3W5S1, strain); experiment: SPR; conditions: both partners purified
T1 construct: source: bought: Sino Biological

tetanus toxoid = tetanus toxoid (Clostridium tetani, production strain …, UniProt P04958)
[2] = target: T2, H1N1 HA (A/California/04/2009) (Influenza A virus A/California/04/2009 …, UniProt C3W5S1, strain); experiment: ELISA
T2 construct: source: bought: Sino Biological

[3] = target: T3, H5N1 HA (A/Vietnam/1194/2004) (Influenza A virus A/Vietnam/1194/2004 …, UniProt A5A5M5, strain); experiment: ELISA; conditions: one partner purified
T3 construct: also called H5N1 hemagglutinin; source: bought: Sino Biological

[4] = target: T4, H2N2 HA (A/Japan/305/1957) (Influenza A virus A/Japan/305/1957 …, UniProt P03451, strain); experiment: ELISA; conditions: one partner purified
T4 construct: source: bought: Sino Biological

[5] = target: T5, H3N2 HA (A/Perth/16/2009) (Influenza A virus A/Perth/16/2009 (H3N2), UniProt C6KNH7, strain); experiment: ELISA; conditions: one partner purified
T5 construct: also called H3N2 hemagglutinin; source: bought: Sino Biological

[6] = target: T3, H5N1 HA (A/Vietnam/1194/2004)

B1: H1-Ab55 (antibody, V domains shown)
VH: EVQLVESGPGLVKPSETLSLTCTVSGGSISSDYWSWIRQAPGKGLEWLAYIHHNGRTNYNPSLGSRVAISIDTSRSQFSLKLGSVTAADTAVYYCARDQTGIRKSNAFDLWGQGTLVTVSS
VL: DIQLTQSPSSLSASVGDRVTITCRASQNIRSYLNWYQQKPGKAPKLLIYGVSTLQNGVPSRFSGSASGSDFTLTISSLQPEDFATYHCQQSYDTPQTFGPGTKVEIK
notes: IgG1; source: HEK293T, transfected with heavy and light chain plasmids; purified mAbs
- Kd [1]: 0.467 nM

B2: H1-Ab59 (antibody, V domains shown)
VH: EVQLVESGPGLVKPSQTLSLTCTVSGGSVSSGGYSWTWIRQPAGKGLEWIGRIYFTGSTNYNPSLKSRITISVDTSKNQFSLRLSSVTAADTAVYYCAREDDFVWGSYRRFAYFDYWGQGTLVTVSS
VL: EIVMTQSPSSLSASVGDRVNITCQASQDISNYLNWYQQKPGEAPKLLIYGASSLQTGVPSRFSGSGSGTNFIFTISSLQPEDLATYYCQQYDNLPMYTFGQGTKVEIK
notes: as for B1
- Kd [1]: 14 nM

B3: H1-Ab30 (antibody, V domains shown)
VH: EVQLVQSGGGLVQPGGSLRLSCAASGFTFSSYAMSWVRQAPGKGLEWVSTISGSGISTYYADSVKGRFTISRDNSKNTLYLQMNSLRADDTAVYYCAKALATHIVMAGTLDFWGQGTLVTVSS
VL: EIVMTQSPATLSVSPEERATLSCRASQSVTNSLAWYQQKPGQAPRLLIYGASTRATGIPARFSGSGSGTEFTLTISSLQSEDFAVYYCQQYNNWPPLTFGGGTKVEIK
notes: as for B1
- Kd [1]: 0.066 nM

B4: H1-Ab43 (antibody, V domains shown)
VH: EVQLVESGGNLVQPGGSLTLSCAVSGFAFSNFEANWVRQAPGKGLEWVSYISKSGLTKYYSDSVKGRFTISRDNAKSSLYLQMNSLRAEDTAVYYCVSPIPVAGTMEIYWGQGTLVTVSS
VL: B3 VL with E1D, V3Q, S14F, E16G, V29I, T30R, N31S, S32D, A43P, G68E
notes: as for B1
- Kd [1]: 0.155 nM

B5: TT-Ab1 (antibody, V domains shown)
VH: QVQLQESGAEVKNLGASVKVSCKASGYIFTNYGITWVRQAPGQGLEWIGWTTIYNGNTNYARKLQGRVTMTTGTSTRTAYMELRSLKSDDTAMYYCARGLRHYHDGSPLEYWGQETTVTVSS
VL: DIVMTQSPGTLSLSPGERVTLSCRASQSVGSSYLAWYQQKPGQTPRLLVFGASSRATGIPDRFSGSGSGTDFTLTISRLEPEDFAVYYCQLYGNSLITFGQGTRLEIK
- binding result (tetanus toxoid): binds

B6: H5-Ab4 (antibody, V domains shown)
VH: EVQLVESGGGAVQPGRSLRLSCAVSGFTFSSYGMNWVRQAPGKGLEWVAVISYDGSNTYYADSVKGRFTISRDDSKNTLFLQMNSLRADDTAVYYCAKDFQLRLLRYFDWLSSPFDHWGQGTLVTVSS
VL: DIQLTQSPGTLSLSPGERATLSCRASQSIRSNFLAWYQQTPGQGPRLLIYGASSRATGIPDRFSGSGSGTDFTLTISGLEPEDFAVYYCQQYASSPQTFGQGTKVEIK
- binding result [2]: binds

B7: TT-Ab5 (antibody, V domains shown)
VH: EVQLVQSGAEVKKPGSSVKVSCTAPGVTFSTYPIDWVRQAPGQGLEWMGGIIPISGSPKYAQKFQGRVAITADGFTNTAYLELSSLRSEDTAVYYCATRESGYDGQFDYWGQGTLVTVSS
VL: QSVLTQPPSASGTPGQRVTISCTGSTSNIGNNYVYWYQQVPGTAPTLLIYRSNQRPSGVPDRFSGSKSGTSASLAISGLRSEDEADYYCATWDDSLGVVFGGGTKLTVL
- binding result (tetanus toxoid): binds

B8: H1-Ab56 (antibody, V domains shown)
VH: EVQLVQSGPGLVKPSETLSLTCTVSGGSISSDYWSWIRQPPGKGLEWIGYIHQNGRTNSNPSLRGRVSMLVDTSESQFSLKLGSVTAADTAVYYCARDQAGIRRSNAFDIWGQGTLVTVSS
VL: DIVMTQSPSSLSASVGDRVTITCRASQSISTYLNWYQQKPGKAPKLLIYAASTLQSGVPSRFSGSASGSEFTLTISSLQPEDFASYYCQQSYDIPQTFGPGTKVEIK
notes: as for B1
- Kd [1]: 0.372 nM

B9: H5-Ab6 (antibody, V domains shown)
VH: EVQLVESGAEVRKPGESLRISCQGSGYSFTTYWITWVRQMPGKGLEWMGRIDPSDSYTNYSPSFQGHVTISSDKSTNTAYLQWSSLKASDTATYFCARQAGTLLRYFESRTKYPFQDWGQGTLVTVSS
VL: EIVLTQSPGTLSLSPGERATLSCRASQSVSGGYLAWYQQRPGQAPRLLISGASTRATGIPDRFSGSGSGTDFTLTISGLEPEDFAVYYCQQYGDSPAYTFGQGTKVEIK
- binding result ([2]; one partner purified): binds
- binding result [3]: binds
- binding result [4]: binds
- binding result [5]: binds

B10: TT-Ab11 (antibody, V domains shown)
VH: QVQLQESGPGLVKPSQTLSLTCNVSDGSISSDGYYWSWLRQHPGKGPEWIGYIHHSGHPYYNPSLKSRVTMSIDTSKNQFALKLSSVTAVDTAMYYCARVRGTGYYPGTLDLWGQGTLVTVSS
VL: EIVLTQSPGTLSLSPGERATLSCRASQSVSSSYFAWYQQIPGQAPRLLIYGTSNRATGIPDRFSGSGSGKDFTLTISRLEPEDFAVYYCQQFGSSPLTFGGGTKVEIK
- binding result (tetanus toxoid): binds

B11: H1-Ab41 (antibody, V domains shown)
VH: QVQLQESGGGVVQPERSLRLSCAASGFKFSSYAMHWVRQAPGKGLEWVAVFWSDGTTKYYANSVRGRFTVSRDNSKNMLYLQINSLRAEDTAVYYCARGFLLPYYGSSGYEYFFDFWGQGTTVTVSS
VL: AIGMTQSPESLAVSLGERATINCKSGQSILHSSNNKNYLAWYQQKPGQPPKLVIYWASTRESGVPDRFSGSGSETDFTLTISSLQAEDVAVYYCQQYYSTPSFGGGTKVEIK
notes: as for B1
- Kd [1]: 0.0819 nM

B12: H5-Ab3 (antibody, V domains shown)
VH: EVQLVESGGGLVKPGGSLRLSCAASGFTFSTYSMNWVRHAPGKGLEWVSSISSGSNYIYYADSVKGRFTISRDNAKNSLYLQMNNLRAEDTAVYHCARDRGESSYYWFDPWGQGTLVTVSS
VL: QSALTQPASVSGSPGQSITISCTGTSSDVGAYDYVSWYRQHPGEAPKLLIYDVARRPSGVSFRFSGSKSGNAASLTISGLQAEDEADYFCSSYAGTTIWVFGGGTKLTVL
- binding result [6]: binds

B13: TT-Ab6 (antibody, V domains shown)
VH: EVQLLESGGGLVRPGGSLRLSCAASGFSFNDHYMTWVRQAPGKGLEWVSYISDGRVTTNYAASVKGRFIISRDNTKKTVYLQMNSLTAEDTAVYYCARVGPWPVMKGAFDSWGQGTLVTVSS
VL: DIQMTQSPGTLSLSPGERATISCRASQSVSSDYLVWYQQKPGQAPRLLIYGASRRATGIPDRFSGSGSGTDFTLTISRLEPEDFAVYYCQQYGSSPLFAFGPGTKVEIK
- binding result (tetanus toxoid): binds

B14: H1-Ab32 (antibody, V domains shown)
VH: EVQLVESGGGLVQPGGSLRLSCAASSFTFSNYAMSWVRQAPGKGLEWVSLINSGGGDKYYADSVKGRFIVSRDNSKNALYLQMNSLRAEDTAVYFCARVVGRETFGLVIPIYYFDYWGQGDLVTVSS
VL: EIVLTQSPATLSLSPGERATLSCRASQSVSSFLAWYQQKPGQAPRLLIYDASNRATGVPARFSGSGSGTDFTLTISSLEPEDFAVYYCQQCSNWPPLTFGGGTKVEIK
notes: as for B1
- Kd [1]: 0.56 nM

B15: H5-Ab2 (antibody, V domains shown)
VH: EVQLVQSGAEVKKPGSSVKVSCRSSGGPFRSNAISWVRQAPGQGLEWMGGIIAVFGTVEYAQKFQGRVTITADDSRSTVYMELRSLRSDDTAFYYCASAHGYHNYGSRGYFVSWGQGTLVTVSS
VL: DIVMTQSPGTLSLSPGERATLSCRASQSVSSNYLAWYQQKLGQPPRLLIYGASSRATGIPDRFSGSGSGTDFTLTISRLEPEDYAVYYCQQYGSSPHTFGQGTKVEIK
- binding result [2]: binds

B16: TT-Ab2 (antibody, V domains shown)
VH: EVQLVESGAEVKKPGASVKLSCKASGYTVTSDYMHWVRQAPGQGLEWMGIINPSDGSTNYPRKFQGRVTMTRDTSTRTVYMEVSSLRSEDTAVYYCAGGGQRFTFDYWGQGATVTVSS
VL: QSALTQPASVSGSPGQSITISCTGTSGNVGSHNLVSWYQQHPGEAPKLVISDINRRPSGVSNRFSGSKSGNTASLTISGLQAEDEADYFCCSYAGNSNVIFGGGTKLTVL
- binding result (tetanus toxoid): binds

B17: TT-Ab13 (antibody, V domains shown)
VH: EVQLVESGAEVKKPGESLRISCKGSGYSFTTYWIGWVRQMPGKGLEWIGIIYAGDSDTRYSPSFQGQVTMPVDKSITTAYLQWSSLKASDTAMYYCARQGDPSSYLTSGFEFWGQGTLVTVSS
VL: DIQMTQSPSTLSASVGDGVTITCRASQSISRWLAWYQQKPGKAPKLLIYQASRLESGVPSRFSGSGSGTEFTLSISSLQPDDFATYYCHQYNSYSQTFGQGTKVEIK
- binding result (tetanus toxoid): binds

B18: TT-Ab8 (antibody, V domains shown)
VH: EVQLVESGGGLVQPGGSLRLSCAASGFTFSYYDMNWVRQAPGKGLEWLSYISGSGGVIYYADSVKGRFTISRDNAKNSLFLQMNSLRAEDTAVYYCARDPSPGRLGFFDYWGQGTLVTVSS
VL: EIVMTQSPAILSVSPGERATLSCRASQRVSSNLAWYQQKPGQAPRLLIYGASTRATGIPARFSGSGSGTEFTLTISSLQSEDCAIYYCQQYNNWPRTFGQGTKVEIK
- binding result (tetanus toxoid): binds
